Measured values published in the RNAGym collection of RNA variant scans (doi:10.1073/pnas.2313332121).

B1: TPR t1 (parent)
chain: GACCAAUCUGCCCUCAGAGCUCGAGAACAUCUUCGGAUGCAGAGGAGGCAGGCUUCGGUGGCGCGAUAGCGCCAACGUCCUCAACCUCCAAUGCAUCCCACCACAUGAUGAUGCCUGAAGAGCCUUGGUUUUUUG

Variants of: B1
Experiment: polymerase ribozyme fitness, log enrichment relative to wild type (log ratio); higher = more active; in vitro selection for triplet polymerase activity
Summary of the method: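 In triplicate, a single round of in vitro selection was run on each mutant library, PCR-built and transcribed, covering one subunit of a heterodimeric triplet polymerase ribozyme. Frozen incubation at −7 °C followed annealing with a biotinylated primer, partner subunit and triplets, and extended constructs were then gel-excised, streptavidin-captured and taken through RT-PCR. Fitness is the logarithm of genotype enrichment over wild-type enrichment, from inverse-variance-weighted replicate averages of Illumina-sequenced inputs and outputs. […] only genotypes with ≥10 input reads and ≥1 read per output were kept.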

Row | Variant | polymerase ribozyme fitness (log ratio)
1 | A26G G69A A91U U133G | -6.73
2 | G52A G117C | -2.77
3 | G42C G71C C79U C80U C97A A121U | -6.28
4 | A18C C64U U130C | -2.08
5 | G71A C94G A108G C123A G135U | -4.8
6 | A90C C114U G128U | -4.34
7 | C56G G63A G135C | -2.89
8 | G61A C64U C86A | -4.48
9 | U78C A95C C123A | 0.0148
10 | G10A C11A G42U G48A G63A A66U A91G C115U | -6.69
11 | C22U A27C A41U A50U G60C C82U | -6.98
12 | C15U G69A G113C | -5.7
13 | G10C G36A | -1.22
14 | C3A G10U G69U C72U C101U | -1.82
15 | C40G C94A | -2.65
16 | U7A C15G C88U C124U | 0.702
17 | C11A G113A | -3.12
18 | G58C C101U G122A | -1.1
19 | A24C G39C C114U G120C | -5.54
20 | A5U U9G C62A | -0.961
21 | G47A G69C C86A C97U C115U C124G U125C | -5.52
22 | C15U C56U G69U C102A | -5.73
23 | C12U C15U A46C G47A G69C A100G C101U G113U C123G | -7.1
24 | C49U G61U C86A | -1.79

Row | Variant | polymerase ribozyme fitness (log ratio)
25 | G48C G60C G110A | -2.42
26 | C4U C56G C70A | -3
27 | C15U A29U C40A A46C C123A | -5.62
28 | U38A G45C C89U | -2.34
29 | C80U C114A | -1.85
30 | C49A A68G A90U | -6.08
31 | U7A U81G G122A | -5.92
32 | A24U C53G C72U C89A C124A | -7.6
33 | G65A C114G | -7.73
34 | C3A | -1.22
35 | C13U G17A C123A | 0.664
36 | C12A G128U | -2.12
37 | C8U A26U C62U G93A | -2.86
38 | A41C C80A G107A G117U U129C | -7.66
39 | A5U C73A G122A U126G | -2.29
40 | U7G A16C | -1.37
41 | C72U C124G | 1.47
42 | G60A C98G | -7.02
43 | A43C G47A C115U U116C | -3.25
44 | U14A G36A | -3.62
45 | C22A G57C C86U | -4.83
46 | G51A G128A | -5.75
47 | A41U A111G | -1.26
48 | G45C C82U G93A C101U | -1.84

Row | Variant | polymerase ribozyme fitness (log ratio)
49 | G48U G57U G63A U96G A100C C102G G120C | -6.73
50 | A43U C124A | 0.127
51 | U9A A103G | -3.9
52 | A41U C104U | -0.832
53 | C4G G45C C70A | -4.27
54 | G52U C73U U96G A121G | 1.57
55 | C13U U30C A46U C73U | -5.98
56 | A50U G110C | -4.17
57 | A5U C56G C114U | -4.21
58 | C70A G113C | -3.23
59 | C4G G63U | -1.88
60 | A46C G63U U106A G117A | -3.84
61 | U9G A26G C70G A84U U112A | -4.4
62 | G36C U81A A84U | -2.7
63 | G47A U92C | -2.73
64 | C56G C86U | 0.0765
65 | C22G A41U G44U | -5.29
66 | C94U G113C | -2.26
67 | G47C C49U C62U | -2.46
68 | C104A G117A | -2.41
69 | U38G U55G | 0.414
70 | G19A A43U C49U U59A C124U | -1.73
71 | C40G C53A C70U C115G U125A | -3.58
72 | C62G C79U U81A C85A | -6.14

Row | Variant | polymerase ribozyme fitness (log ratio)
73 | C15U C104U G117U | -0.366
74 | A43C G63A C114G C123U | -6.77
75 | A5U A18G | -2.05
76 | U54C C73U A83U G113U U134G | -2.89
77 | C4G C20G G61U G117A | -4.76
78 | G71C C89U U126C | -2.71
79 | G63A A90C | -2.84
80 | C70U A108U | -5.38
81 | G71A C104U | -0.49
82 | A50U G71U G127A | -2.67
83 | G17C G42A A74G A84C A91U | -4.35
84 | C102A C114U | -3.69
85 | C8A G110C | -3.59
86 | G52U G77C | -0.813
87 | A5U G39C A105U | -3.56
88 | C15U C40A G60C | -2.3
89 | C53U U132A | -0.215
90 | A27U C49A C56U C62U U87G G113C | -6.58
91 | G52U A68U A83C C101G C115U | -7.12
92 | G61C A111G U116G C124A U131G | -3.87
93 | A16U A50G G58A G60A C64U | -3.73
94 | C64U A84C C94G | -1.23
95 | C40G G120A | 0.215
96 | G60C A83C | -0.586

Row | Variant | polymerase ribozyme fitness (log ratio)
97 | A18U G48U | -2.49
98 | G39U C64U A84C G122A C124A | 0.97
99 | A41U G45C | -2.41
100 | C82A C94U C98U U106C | -2.21
101 | C12G C79A A91C | -2.84
102 | U7C C97U C114A | -1.45
103 | A5U C53U C64U U106A | -0.639
104 | A16U G61C | -2.41
105 | U59G C86U A95U C115A C123U | -2.76
106 | C15A C80U A84U | -2.49
107 | G42C G71U G117A | -4.04
108 | U9G C12A U14C G44C G63A G77A G93A | -2.85
109 | G71A C79G | -3.16
110 | G69U C102U | -1.18
111 | A46C C72A U112C C124U | 1.22
112 | C20U C40A G44C C49G G71A C115A A119G | -4.83
113 | C82G C101A C115A | -2.63
114 | C4U U112C | 1.38
115 | G69C C123G | 0.685
116 | U9A C15A G39U C49A C56U A121U | 0.6
117 | C11A C72A C101A U126C | -3.38
118 | G17A A46U | -4.52
119 | A5U G44A A74U C82G U87G | -4.13
120 | C85G C86A | -1.69

Row | Variant | polymerase ribozyme fitness (log ratio)
121 | G71U U112A | 1.49
122 | C70G U112C C114A | -4.91
123 | U9C G60A U130A | 0.434
124 | C4A C53G G77A C80A | -5.1
125 | C40U G71A U78G C123G U125C | -1.36
126 | C8A C13G G17C C82U | -4
127 | C12A A18C G77C A121U | -0.381
128 | C8U G60U U106A G122A | 0.855
129 | G51A A84G A108C U112G | -8.09
130 | U14A A24G A119G | -4.72
131 | U59A U112A | 1.47
132 | G10A G44A G63C | -0.955
133 | A16G C94A A95U | -4.15
134 | C64A C80G A83U C99U A103C U125A | -7.56
135 | A41U G42C C114A C124A | -3.31
136 | C56A U78C | -0.456
137 | G63U C94A A121C | -0.515
138 | G69U G113U | -0.867
139 | A46U G93A G120A G122A | -3.08
140 | C40G A43G U54A | -4.85
141 | G39C U116C | -2.01
142 | C64U A83C A100C C101G U129G | -3.82
143 | C11G C62U C101G U131G | -3.31
144 | U38A A50U C62U C123G U133A | -1.2

Row | Variant | polymerase ribozyme fitness (log ratio)
145 | G23A G39U C53A G69U G71A C115G G117A | -4.86
146 | G77A A95C | -0.839
147 | G51U G63A G117U | -5.99
148 | A18G U59A A111U | -6.09
149 | G17U A37U | -2.44
150 | C15U A50C | -1.84
151 | G52C C72U C86U C89U A105U | -4.77
152 | U7C C62U C99G U112G U132C U134A G135U | -6.65
153 | U14A U81A | -4.19
154 | G23C G120C | -5.28
155 | A41C A46G U109A | -7.53
156 | C11U G48U G113A | -2.84
157 | C28A U112A | -1.21
158 | C72A C123A | 0.479
159 | C34U U78C | -4.25
160 | A5G G63C | -0.273
161 | A43G G57U C73U A90U C102U | -4.93
162 | C4U A16G C49U G69A G71C U78G C82U A84U C115A | -6.51
163 | C34A U78C C88U | -1.84
164 | G39A C97A G120C | -6.66
165 | C28G C53A C72A | -3.19
166 | C4U C15U A43U A46U | -3.46
167 | C11G G120U | 1.37
